*1 amine or outer side, *2 acyl side, *3 side chain or, on linkers, in order; H or OH if unused. Bridges are numbered along the chain shown (N, C = ends). Primed or numbered codes have the meaning given here. Where no end group is shown, it is not given here. [ ]: non-standard residue; d: D form. The star is where a group is joined. ξ: configuration not given here. DAPTZAC3 = (S)-3-(4-(3-acrylamidopropyl)-1H-1,2,3-triazol-1-yl)-2-aminopropanoic acid, C=CC(=O)NCCCc1cn(C[C@H](N[*:1])C(=O)[*:2])nn1; DAPTZAC2 = (S)-3-(4-(2-acrylamidoethyl)-1H-1,2,3-triazol-1-yl)-2-aminopropanoic acid, C=CC(=O)NCCc1cn(C[C@H](N[*:1])C(=O)[*:2])nn1; DAPTZAC1 = (S)-3-(4-(acrylamidomethyl)-1H-1,2,3-triazol-1-yl)-2-aminopropanoic acid, C=CC(=O)NCc1cn(C[C@H](N[*:1])C(=O)[*:2])nn1; ADTZPA″ = (S)-2-amino-3-(1-dodecyl-1H-1,2,3-triazol-4-yl)propanoic acid, CCCCCCCCCCCCn1cc(C[C@H](N[*:1])C(=O)[*:2])nn1; MORAC = (S)-5-acrylamido-2-(methylamino)pentanoic acid, C=CC(=O)NCCC[C@@H](C(=O)[*:2])N(C)[*:1]; DABAC1 = (S)-4-acrylamido-2-aminobutanoic acid, C=CC(=O)NCC[C@H](N[*:1])C(=O)[*:2]; m‑xylylene = m-xylylene thioether bridge between Cys; Trp(7-aza) = N[C@@H](Cc1c[nH]c2ncccc12)C(=O)O; NMePhe(4-F) = CN[C@@H](Cc1ccc(F)cc1)C(=O)O; ivDde = CC(C)CC(=C1C(=O)CC(C)(C)CC1=O)*; mXylylene = c1cc(C[*:1])cc(C[*:2])c1; Glutaryl = O=C(CCCC(=O)[*:2])[*:1]; dPhg = N[C@@H](C(=O)O)c1ccccc1; Chg = N[C@H](C(=O)O)C1CCCCC1; PEG4 = NCCOCCOCCOCCOCCC(=O)O; Phg = N[C@H](C(=O)O)c1ccccc1; Tle = CC(C)(C)[C@H](N)C(=O)O; ξPhg = NC(C(=O)O)c1ccccc1; NMeA = CN[C@@H](C)C(=O)O; Pra = C#CC[C@H](N)C(=O)O; Dab = NCC[C@H](N)C(=O)O; Nva = CCC[C@H](N)C(=O)O; Dap = NC[C@H](N)C(=O)O; PEG1 = NCCOCCC(=O)O; Ahx = NCCCCCC(=O)O; Sar = CNCC(=O)O
B1: R4152 (peptide)
peptide: Ac-[Nva]CA[Tle]KH[NMeA][Phg][Trp(7-aza)]Y[NMePhe(4-F)][Sar]C-NH2
modifications: linker 2-13 via mXylylene
SMILES: CCC[C@H](NC(C)=O)C(=O)N[C@H]1CSCc2cccc(c2)CSC[C@@H](C(N)=O)NC(=O)CN(C)C(=O)[C@H](Cc2ccc(F)cc2)N(C)C(=O)[C@H](Cc2ccc(O)cc2)NC(=O)[C@H](Cc2c[nH]c3ncccc23)NC(=O)[C@H](c2ccccc2)NC(=O)[C@H](C)N(C)C(=O)[C@H](Cc2c[nH]cn2)NC(=O)[C@H](CCCCN)NC(=O)[C@H](C(C)(C)C)NC(=O)[C@H](C)NC1=O
B2: R4144 (peptide)
peptide: Ac-[Nva]CY[Tle]K[dP][NMeA][Phg][Trp(7-aza)]Y[NMePhe(4-F)][Sar]C-NH2
modifications: linker 2-13 via mXylylene
SMILES: CCC[C@H](NC(C)=O)C(=O)N[C@H]1CSCc2cccc(c2)CSC[C@@H](C(N)=O)NC(=O)CN(C)C(=O)[C@H](Cc2ccc(F)cc2)N(C)C(=O)[C@H](Cc2ccc(O)cc2)NC(=O)[C@H](Cc2c[nH]c3ncccc23)NC(=O)[C@H](c2ccccc2)NC(=O)[C@H](C)N(C)C(=O)[C@H]2CCCN2C(=O)[C@H](CCCCN)NC(=O)[C@H](C(C)(C)C)NC(=O)[C@H](Cc2ccc(O)cc2)NC1=O
B3: R4140 (peptide)
peptide: Ac-[Nva]CY[Tle]A[Dab][NMeA][Phg][Trp(7-aza)]Y[NMePhe(4-F)][Sar]C-NH2
modifications: linker 2-13 via mXylylene
SMILES: CCC[C@H](NC(C)=O)C(=O)N[C@H]1CSCc2cccc(c2)CSC[C@@H](C(N)=O)NC(=O)CN(C)C(=O)[C@H](Cc2ccc(F)cc2)N(C)C(=O)[C@H](Cc2ccc(O)cc2)NC(=O)[C@H](Cc2c[nH]c3ncccc23)NC(=O)[C@H](c2ccccc2)NC(=O)[C@H](C)N(C)C(=O)[C@H](CCN)NC(=O)[C@H](C)NC(=O)[C@H](C(C)(C)C)NC(=O)[C@H](Cc2ccc(O)cc2)NC1=O
B4: R4145 (peptide)
peptide: cyclo(Y[Tle]KH[NMeA][Phg][Trp(7-aza)]Y[NMePhe(4-F)][Sar][Pra])
SMILES: C#CC[C@@H]1NC(=O)CN(C)C(=O)[C@H](Cc2ccc(F)cc2)N(C)C(=O)[C@H](Cc2ccc(O)cc2)NC(=O)[C@H](Cc2c[nH]c3ncccc23)NC(=O)[C@H](c2ccccc2)NC(=O)[C@H](C)N(C)C(=O)[C@H](Cc2c[nH]cn2)NC(=O)[C@H](CCCCN)NC(=O)[C@H](C(C)(C)C)NC(=O)[C@H](Cc2ccc(O)cc2)NC1=O
B5: R4137 (peptide)
peptide: cyclo([Ahx]Y[Tle]KH[NMeA][Phg][Trp(7-aza)]Y[NMePhe(4-F)][Sar][Pra])
SMILES: C#CC[C@@H]1NC(=O)CN(C)C(=O)[C@H](Cc2ccc(F)cc2)N(C)C(=O)[C@H](Cc2ccc(O)cc2)NC(=O)[C@H](Cc2c[nH]c3ncccc23)NC(=O)[C@H](c2ccccc2)NC(=O)[C@H](C)N(C)C(=O)[C@H](Cc2c[nH]cn2)NC(=O)[C@H](CCCCN)NC(=O)[C@H](C(C)(C)C)NC(=O)[C@H](Cc2ccc(O)cc2)NC(=O)CCCCCNC1=O
B6: R4146 (peptide)
peptide: Ac-[Nva]CY[Tle]A[DABAC1][NMeA][Phg][Trp(7-aza)]Y[NMePhe(4-F)][Sar]C-NH2
modifications: linker 2-13 via mXylylene
SMILES: C=CC(=O)NCC[C@@H]1NC(=O)[C@H](C)NC(=O)[C@H](C(C)(C)C)NC(=O)[C@H](Cc2ccc(O)cc2)NC(=O)[C@@H](NC(=O)[C@H](CCC)NC(C)=O)CSCc2cccc(c2)CSC[C@@H](C(N)=O)NC(=O)CN(C)C(=O)[C@H](Cc2ccc(F)cc2)N(C)C(=O)[C@H](Cc2ccc(O)cc2)NC(=O)[C@H](Cc2c[nH]c3ncccc23)NC(=O)[C@H](c2ccccc2)NC(=O)[C@H](C)N(C)C1=O
B7: R4141 (peptide)
peptide: Ac-[Nva]CY[Tle]A[Dap][NMeA][Phg][Trp(7-aza)]Y[NMePhe(4-F)][Sar]C-NH2
modifications: linker 2-13 via mXylylene
SMILES: CCC[C@H](NC(C)=O)C(=O)N[C@H]1CSCc2cccc(c2)CSC[C@@H](C(N)=O)NC(=O)CN(C)C(=O)[C@H](Cc2ccc(F)cc2)N(C)C(=O)[C@H](Cc2ccc(O)cc2)NC(=O)[C@H](Cc2c[nH]c3ncccc23)NC(=O)[C@H](c2ccccc2)NC(=O)[C@H](C)N(C)C(=O)[C@H](CN)NC(=O)[C@H](C)NC(=O)[C@H](C(C)(C)C)NC(=O)[C@H](Cc2ccc(O)cc2)NC1=O
B8: R4142 (peptide)
peptide: Ac-[Nva]CY[Tle]AH[MORAC][Phg][Trp(7-aza)]Y[NMePhe(4-F)][Sar]C-NH2
modifications: linker 2-13 via mXylylene
SMILES: C=CC(=O)NCCC[C@H]1C(=O)N[C@@H](c2ccccc2)C(=O)N[C@@H](Cc2c[nH]c3ncccc23)C(=O)N[C@@H](Cc2ccc(O)cc2)C(=O)N(C)[C@@H](Cc2ccc(F)cc2)C(=O)N(C)CC(=O)N[C@H](C(N)=O)CSCc2cccc(c2)CSC[C@H](NC(=O)[C@H](CCC)NC(C)=O)C(=O)N[C@@H](Cc2ccc(O)cc2)C(=O)N[C@@H](C(C)(C)C)C(=O)N[C@@H](C)C(=O)N[C@@H](Cc2c[nH]cn2)C(=O)N1C
B9: R4149 (peptide)
peptide: Ac-[Nva]CY[Tle]KH[NMeA][Chg][Trp(7-aza)]Y[NMePhe(4-F)][Sar]C-NH2
modifications: linker 2-13 via mXylylene
SMILES: CCC[C@H](NC(C)=O)C(=O)N[C@H]1CSCc2cccc(c2)CSC[C@@H](C(N)=O)NC(=O)CN(C)C(=O)[C@H](Cc2ccc(F)cc2)N(C)C(=O)[C@H](Cc2ccc(O)cc2)NC(=O)[C@H](Cc2c[nH]c3ncccc23)NC(=O)[C@H](C2CCCCC2)NC(=O)[C@H](C)N(C)C(=O)[C@H](Cc2c[nH]cn2)NC(=O)[C@H](CCCCN)NC(=O)[C@H](C(C)(C)C)NC(=O)[C@H](Cc2ccc(O)cc2)NC1=O
B10: R4139 (peptide)
peptide: cyclo([PEG1]Y[Tle]KH[NMeA][Phg][Trp(7-aza)]Y[NMePhe(4-F)][Sar][Pra])
SMILES: C#CC[C@@H]1NC(=O)CN(C)C(=O)[C@H](Cc2ccc(F)cc2)N(C)C(=O)[C@H](Cc2ccc(O)cc2)NC(=O)[C@H](Cc2c[nH]c3ncccc23)NC(=O)[C@H](c2ccccc2)NC(=O)[C@H](C)N(C)C(=O)[C@H](Cc2c[nH]cn2)NC(=O)[C@H](CCCCN)NC(=O)[C@H](C(C)(C)C)NC(=O)[C@H](Cc2ccc(O)cc2)NC(=O)CCOCCNC1=O
B11: R4153 (peptide)
peptide: Ac-[Nva]CY[Tle]KA[NMeA][dPhg][Trp(7-aza)]Y[NMePhe(4-F)][Sar]C-NH2
modifications: linker 2-13 via mXylylene
SMILES: CCC[C@H](NC(C)=O)C(=O)N[C@H]1CSCc2cccc(c2)CSC[C@@H](C(N)=O)NC(=O)CN(C)C(=O)[C@H](Cc2ccc(F)cc2)N(C)C(=O)[C@H](Cc2ccc(O)cc2)NC(=O)[C@H](Cc2c[nH]c3ncccc23)NC(=O)[C@@H](c2ccccc2)NC(=O)[C@H](C)N(C)C(=O)[C@H](C)NC(=O)[C@H](CCCCN)NC(=O)[C@H](C(C)(C)C)NC(=O)[C@H](Cc2ccc(O)cc2)NC1=O

Target: GMPPNP-loaded H-Ras or GTP-loaded K-Ras
Assay: FP competition, displacement of probe R4007 from Ras

First: B1
Second: B2
The IC50 of the first is 14-fold higher: 28.3 µM for the first, 1.96 µM for the second. The second is the more potent here.

First: B3
Second: B4
The IC50 of the first is 4.6-fold lower: 0.608 µM for the first, 2.8 µM for the second.

Compared with B5, Ac-[Nva]CY[Tle]KH[NMeA]A[Trp(7-aza)]Y[NMeA][Sar]CGGGCVIM (linker 2-13 via mXylylene) [R4143] is 4-fold higher in IC50: 0.411 µM for the first, 1.64 µM for the second. The first is the more potent here.

Ac-[Nva]CY[Tle]KH[NMeA][Phg][Trp(7-aza)]Y[NMePhe(4-F)][Sar]C[PEG4][ADTZPA″]-NH2 (linker 2-13 via mXylylene) [R4147] and Ac-[Nva]SY[Tle]A[DAPTZAC3][NMeA][ξPhg][Trp(7-aza)]Y[NMePhe(4-F)][Sar]S-NH2 (also: places Phg, 7-azaTrp, NMe-4-F-Phe, Sar at 9, 10, 12, 13) [R4148] are within 1.5-fold of each other in IC50: 5.19 µM for the first, 6 µM for the second.

Compared with {Alexa Fluor 594}-[Nva]CY[Nva][Phg][NMePhe(4-F)]TP[Trp(7-aza)]C[Trp(7-aza)]EE-NH2 (linker 2-10 via m‑xylylene) [R4154], Ac-[Nva]SY[Tle]A[DAPTZAC2][NMeA][ξPhg][Trp(7-aza)]Y[NMePhe(4-F)][Sar]S-NH2 (also: places Phg, 7-azaTrp, NMe-4-F-Phe, Sar at 9, 10, 12, 13) [R4151] is 3.1-fold lower in IC50: 37.4 µM for the first, 12.2 µM for the second. The second is the more potent here.

First: Glutaryl-[Nva]CY[Tle]K(ivDde)H[NMeA][Phg][Trp(7-aza)]Y[NMePhe(4-F)][Sar]C-NH2 (linker 2-13 via m‑xylylene) [R4138]
Second: B6
The IC50 of the first is 7.4-fold lower: 0.461 µM for the first, 3.39 µM for the second. The first is the more potent here.

Going from B7 to Ac-[Nva]CY[Tle]K(4‑(dimethylamino)benzoyl‑2,3,5,6‑d4)H[NMeA][Phg][Trp(7-aza)]Y[NMePhe(4-F)][Sar]C-NH2 (linker 2-13 via mXylylene) [R4150], the IC50 rises from 0.695 µM to 7.64 µM (11-fold).

Going from Ac-[Nva]SY[Tle]A[DAPTZAC1][NMeA][ξPhg][Trp(7-aza)]Y[NMePhe(4-F)][Sar]S-NH2 [R4005] to B8, the IC50 falls from 2.07 µM to 1.25 µM (1.7-fold). The second is the more potent here.

Compared with B9, B10 is 12-fold lower in IC50: 6.26 µM for the first, 0.522 µM for the second.

For B11, the IC50 was 36.5 µM.
